Results: patent publication US20240424107, “PREPARATION OF SITE-SPECIFIC POLYPEPTIDE CONJUGATES” (POSTECH RESEARCH AND BUSINESS DEVELOPMENT FOUNDATION, published 2024)

Target: trastuzumab (humanized IgG1 monoclonal antibody) (UniProt P01857-1;P01834 P01857-1:1-330,P01834:1-107)
Assay: covalent conjugation at heavy chain only, at least one per antibody; HEPES pH 8.4, Mg, K, 37 C, 1 day
Settings: chain copies: 2
Source text: Whether the aptamer brings oxanine close to the amine group of the target protein, enabling proximity-enhanced covalent bond formation, was monitored with SDS-PAGE (protein bands) and electrophoresis (DNA bands).

Chain of trastuzumab (humanized IgG1 monoclonal antibody) (P01857 other isoform, or with tags, fused parts or gaps, chain 1 of 2, other chains not shown): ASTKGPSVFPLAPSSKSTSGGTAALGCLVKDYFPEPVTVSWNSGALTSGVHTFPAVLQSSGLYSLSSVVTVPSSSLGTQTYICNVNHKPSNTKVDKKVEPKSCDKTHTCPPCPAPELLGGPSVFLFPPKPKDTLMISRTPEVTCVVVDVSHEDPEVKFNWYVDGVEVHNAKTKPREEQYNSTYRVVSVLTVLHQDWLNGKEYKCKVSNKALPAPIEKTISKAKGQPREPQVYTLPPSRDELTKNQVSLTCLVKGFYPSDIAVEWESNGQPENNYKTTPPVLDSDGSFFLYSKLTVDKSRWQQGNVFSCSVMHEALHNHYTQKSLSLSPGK

B1: Fc RNA aptamer Apt8-2-oxanine (mixed)
DNA: GGAGGTGCTCCGAAAGGAACTCC
modifications: printed ggAGG[2'-F-rU]Gc[2'-F-rU]ccgaaaGgaa[2'-F-rC][2'-F-rU]cc (lowercase DNA, uppercase RNA); about 10 oxanine nucleotides added at 3' end
binding result: binds
